Laboratory results taken from paper PMC12274814.

Biological target: nsP13 helicase (SARS-CoV-2) (UniProt P0DTD1)

Substance: ssDNA-F (25-nt)
- K half: 53 nM
